Reference: PMC12817929

Target: HEV-ORF2 mutant lacking all three KFERQ-like motifs (ORF2ΔCMA) (hepatitis E virus genotype 3 (HEV-3), KernowC1-p6 strain)
Assay: co-IP; HEK-293T transfected with plasmids for HSC70 and GRP75 together with WT ORF2 or ORF2ΔCMA for 48 h, NP-40 lysis, IP with Mab-2G8, blots for HSC70 and GRP75

Substance “GRP75 expressed from plasmid in HEK-293T cells together with HSC70 and ORF2 (tag not stated) (from UniProt P38646 47-679) (natural protein)” has a decrease of co-precipitated GRP75 against wild-type ORF2 of 50%.
